According to article PMC12492669, “Malic enzyme-based system for transhydrogenation between nicotinamide cofactors” (Synthetic and Systems Biotechnology, 2025):

Key:
[1] = substrate: NC(=O)C1=CN([C@@H]2O[C@H](COP(=O)(O)OP(=O)(O)OC[C@H]3O[C@@H](n4ccc(N)nc4=O)[C@H](O)[C@@H]3O)[C@@H](O)[C@H]2O)C=CC1; experiment: initial rates of pyruvate reduction, Michaelis-Menten fit; format: biochemical, Lactobacillus helveticus; conditions: 10 mM pyruvate, 50 mM HEPES pH 7.5, 25 °C, varied: cofactor
[2] = substrate: NC(=O)C1=CN([C@@H]2O[C@H](COP(=O)(O)OP(=O)(O)OC[C@H]3O[C@@H](n4cnc5c(N)ncnc54)[C@H](O)[C@@H]3O)[C@@H](O)[C@H]2O)C=CC1; experiment: as above; format: biochemical, Lactobacillus helveticus; conditions: 10 mM pyruvate, 50 mM HEPES pH 7.5, 25 °C, varied: cofactor
[3] = substrate: NC(=O)C1=CN([C@@H]2O[C@H](COP(=O)(O)OP(=O)(O)OC[C@H]3O[C@@H](n4cnc5c(N)ncnc54)[C@H](OP(=O)(O)O)[C@@H]3O)[C@@H](O)[C@H]2O)C=CC1; experiment: as above; format: biochemical, Lactobacillus helveticus; conditions: 10 mM pyruvate, 50 mM HEPES pH 7.5, 25 °C, varied: cofactor
[4] = substrate: NC(=O)C1=CN([C@@H]2O[C@H](COP(=O)(O)OP(=O)(O)OC[C@H]3O[C@@H](n4cnc5c(N)ncnc54)[C@H](O)[C@@H]3O)[C@@H](O)[C@H]2O)C=CC1; experiment: purified protein, by the assay type; set-up: initial rates at varied cofactor, absorbance at 340 nm, Michaelis-Menten fit, pH 7.5, 25 °C; conditions: pH 7.5; 25.0 °C
Description: (§1) For malic enzymes involved in oxidative decarboxylation, the solution contained 5 mM L-malate and 2 mM MgCl2. For malic enzymes involved in reductive carboxylation, the solution included 10 mM pyruvate, 30 mM NaHCO3 and 2 mM MgCl2. For DLDH∗ involved in pyruvate reduction, initial pyruvate concentration was 10 mM. All reactions were performed in 50 mM HEPES (pH 7.5) at 25 °C, with kinetic data fitted to the Michaelis-Menten equation via nonlinear regression using GraphPad Prism 10.0.2. All assays were performed in triplicate, and error bars show standard deviation. Enzyme activity assays of pure enzymes were conducted in a total volume of 0.1 mL. […] The enzyme activity was monitored by measuring the absorbance at 340 nm using a microplate spectrophotometer (Bio-Tek, VT, USA), with continuous absorbance tracking throughout the assay. One unit of pure enzyme activity was defined as the amount of enzyme required to catalyze the production of 1 μmol NADH, NCDH or NADPH per minute under the specified assay conditions. A molar absorption coefficient of 6220 M^−1 cm^−1 for NADH, NCDH or NADPH was used in the calculations.

[5] = substrate: NC(=O)C1=CN([C@@H]2O[C@H](COP(=O)(O)OP(=O)(O)OC[C@H]3O[C@@H](n4cnc5c(N)ncnc54)[C@H](OP(=O)(O)O)[C@@H]3O)[C@@H](O)[C@H]2O)C=CC1; experiment: purified protein, by the assay type; set-up: initial rates at varied cofactor, absorbance at 340 nm, Michaelis-Menten fit, pH 7.5, 25 °C; conditions: pH 7.5; 25.0 °C
Description: as §1

[6] = substrate: NC(=O)c1ccc[n+]([C@@H]2O[C@H](COP(=O)(O)OP(=O)(O)OC[C@H]3O[C@@H](n4cnc5c(N)ncnc54)[C@H](OP(=O)(O)O)[C@@H]3O)[C@@H](O)[C@H]2O)c1; experiment: purified protein, by the assay type; set-up: initial rates at varied cofactor, absorbance at 340 nm, Michaelis-Menten fit, pH 7.5, 25 °C; conditions: pH 7.5; 25.0 °C
Description: as §1

Row | Protein | Km [1] [µM] | Km [2] [µM] | Km [3] [µM] | Km [4] [µM] | kcat [4] [s⁻¹] | kcat/Km [4] [M⁻¹ s⁻¹] | Km [5] [µM] | kcat [5] [s⁻¹] | kcat/Km [5] [M⁻¹ s⁻¹] | Km [6] [µM] | kcat [6] [s⁻¹] | kcat/Km [6] [M⁻¹ s⁻¹]
1 | DLDH∗ (D-lactate dehydrogenase, V152R/N213E mutant) (Lactobacillus helveticus; N213E/V152R) (protein, recombinant; only the V152R/N213E mutant tested; purification and tag not described in main text) TKVFAYAIRKDEEPFLNEWKEAHKDIDVDYTDKLLTPETAKLAKGADGVVVYQQLDYTADTLQALADAGVTKMSLRNVGVDNIDMDKAKELGFQITNVPVYSPNAIAEHAAIQAARVLRQDKRMDEKMAKRDLRWAPTIGREVRDQVVGVRGTGHIGQVFMRIMEGFGAKVIAYDIFKNPELEKKGYYVDSLDDLYKQADVISLHVPDVPAEVHMINDKSIAEMKDGVVIVNCSRGRLVDTDAVIRGLDSGKIFGFVMDTYEDEVGVFNKDWEGKEFPDKRLADLIDRPNVLVTPHTAFYTTHAVRNMVVKAFNNNLKLINGEKPDSPVALNKNKF | 71.1 | 4840 | 2110 | – | – | – | – | – | – | – | – | –
2 | ME (Escherichia coli K-12) (protein, wild-type, recombinant) MEPKTKKQRSLYIPYAGPVLLEFPLLNKGSAFSMEERRNFNLLGLLPEVVETIEEQAERAWIQYQGFKTEIDKHIYLRNIQDTNETLFYRLVNNHLDEMMPVIYTPTVGAACERFSEIYRRSRGVFISYQNRHNMDDILQNVPNHNIKVIVVTDGERILGLGDQGIGGMGIPIGKLSLYTACGGISPAYTLPVVLDVGTNNQQLLNDPLYMGWRNPRITDDEYYEFVDEFIQAVKQRWPDVLLQFEDFAQKNAMPLLNRYRNEICSFNDDIQGTAAVTVGTLIAASRAAGGQLSEKKIVFLGAGSAGCGIAEMIISQTQREGLSEEAARQKVFMVDRFGLLTDKMPNLLPFQTKLVQKRENLSDWDTDSDVLSLLDVVRNVKPDILIGVSGQTGLFTEEIIREMHKHCPRPIVMPLSNPTSRVEATPQDIIAWTEGNALVATGSPFNPVVWKDKIYPIAQCNNAFIFPGIGLGVIASGASRITDEMLMSASETLAQYSPLVLNGEGMVLPELKDIQKVSRAIAFAVGKMAQQQGVAVKTSAEALQQAIDDNFWQAEYRDYRRTSI | – | – | – | 1080 ± 350 | 1.88 ± 0.35 | 1740 | 520 ± 120 | 0.01 | 20 | 11500 ± 1200 | 0.58 ± 0.05 | 50
